Measurements taken from the nanobody polyreactivity screen of Harvey et al. (2022).

Assay: yeast display, Sf9 membrane polyspecificity reagent, FACS + sequencing; frameworks hold sequencing errors
Outline: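 Sorting gates, low and high (top ~1%), were placed on anti-HA fluorescence to track expression and on streptavidin fluorescence to track reagent binding. A clone's polyreactivity label is taken from the gate it came out of. The reagent was 10% biotinylated, detergent-solubilized Sf9 membrane, applied for 1 hour at 4 °C to galactose-induced yeast display cells.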

Sequence	polyreactivity (PSR sort gate)
QVQLVESGGGLVQAGGSLRLSCAASGSTFKLYAMGWYRPAPGKERELVAAITSNCGRTYYADSVKGRFTISRDIAKNTVYLQMNSLKPEDTAVYYCAARRYAPAGGYDYWGQGTQVTVSS	high polyreactivity
QDQLVESGGGIVQAGGSLRLICAASGRIFLRNDMGWYRQAPGKQRELVAGISSDGSTYYADSVKGRFTISRDNAKNTVYLQMNSLKPEDTAVYYCADERWGNPTDYQFWRQYDYWGQGTQVTVSS	low polyreactivity
QVQLVESGGGLVQAGGSLRLSCAASGRIYYRNAMGWYRQAPGKERELVAAISWRGGTTYYADSVKGRFTISRDNAKNSVYLQMNSLKPEYTAVYYCAADRRKAQAKPVHYSWGPQRYGYGYWGQGTQVTVSS	high polyreactivity
QVQLVESGGGLVQAGGSLRLSCAASGINFDGNVMGWYRPAPRKEREFFASISISGGSTSYADSVKGRFTISRDNAKNTVYLQMNSLKPEDTAVYYCNTDVCYGRVWRWRFHGDYWGQGTQVTVSS	low polyreactivity
QVQLVESVGALVQAGGSLRLSCAASGSTFRRNAMGWYRQAPGKERELVATITTRGGSTYYADSVKGRFTLSRDNAKNTVNLQMNSLKPEDTAVYYCAADRRSGYSRSKYGRGDYWGQGTQVTVSS	high polyreactivity
QVQLVESGGGLVQAGGTLRLSCAASGSILTPNAMGWSRQAPGKERELVAAISDNAGSTYYADSVKGRFTISRDNAKNTVYLQMNSLKPEDTAVYYCAAEYWEYNLVYLVYYYSMDYWGQGTQVTVSS	high polyreactivity
QVQLVESGGGLVQAGGSLRLSCAASGRTFRTYTMGWYRQAPGKERELVAAISWSGSSTYYADSVKGRFTISRDNAKNTVYLQMNSLKPEDTAGYYCAARGLYDYGYWGQGTQVTVSS	high polyreactivity
QVQLVESGGGLVQAGGSLRLSCAASGLIFYTYAMGWYRQAPGNERELVADINRSDGSTYYADSVKGRFTISRDNAKNTVYLQMNSLKPEDTAVYYCAVVGPYYSRFGGRYYYWGQGTQVTVSS	low polyreactivity
QVQLVESGGGLVQAGGSLRLSCAASGRIFSRYAMGWYRQAPGKERELVATITRRGGSTSYADSVKGRFTISRDNAKNTVYLQMNSLKPEDTAVYYCAAQSFYGIYYGQQDYDYWGQGTQVTVSS	high polyreactivity
QVQLVESGGGLVQAGGSLRLSCAASGSTFYGYAMGWYRQAPGKERELVAAISWSGASTYYADSVKGRFTISRDNAKNTVYLQMNSLKPDDTAVYYCNKRYRGYFNWPHGYWGQGTQVTVSS	high polyreactivity
QVQLVESGGGLVQAGGSLRLSCAASGRIFSSYAMGWSRQAPGKERELVAAISSSGGNTYYADSVKGRFTISRDNAKNTVYLQMNSLKPEDTAVYYCNTRWVHRDWYDYWGQGTQVTVSS	high polyreactivity
QVHLVESGVGLVQAGGSLRLRCAASGRTLYYYAMGWYRQAPGKQSELVAAINSGGSTKYADSVKGRFTISRDNAKNTVYLQMHSLKPEDTAVYFCAARGYIRGGYYWGQGTQVTVSS	high polyreactivity
QVQLVESGGGLDQAGGSLRLSCAASGFIFGRYTMVWYRPAPGKEMELVAAISRGGITNYADSEKGRFTISRDNAKNTVYLQMNSLKPEDTAVYYCATTRDYWRGRSYYYWGQGTQVTVSS	high polyreactivity
QVQLVESGGGLVQAGGSLRLSCAASGFTFQYYAMGCYRPAPGKERELVATISSTDNTYYADSVKGRFTISRDNAKNTVYLQMFSLKPEDTAVYYCNAAYVYGYQARGGYWGQGTQVTVSS	high polyreactivity
QVQLVESGGGLVQAGGSLRLSCAASGSTFLYYAMGWYRQAPGKERELVARITTRVGRTYYADSVKGRFTISRDNAKNTVYLQMNSLNPEDTAVYYCAAYPDYSYYYWGQGTQVTVSS	high polyreactivity
QVQLVESGGGLVQAGGSLRLSCAASGSIFVGYAMGWYRQAPGKERELVAAITSGGNTNYADSVKGRFTISRDNAKNTVYLQMNSLKPEDTAVYYCNKDQGDGLRSQLGTDATYDYWGQGTQVTVSS	low polyreactivity
QVQHVESGGGLVQAGGSLRLSCAASGFIFTHYTMGWSRQAPGKESELVAVISSAGSTYYADSVKGRFTISRDNAKNTVYLQMNSLKPEDTAVYYCNKVVRQVHGRGLDYWGQGTQVTVSS	high polyreactivity
